“Also recorded” adds a separate entry of the source.
Experiments:
[1] = system: Acute promyelocytic leukemia cells; conditions: differentiation down the neutrophil lineage for three days; cited from earlier work
[2] = system: naïve WT T cells; assay: In vitro Transwell cell migration toward CCL19; assay type: cell-based, mouse; conditions: after CCL19 exposure
Procedure: (§1) Cells from the peripheral lymph nodes and the spleen of Balb/c mice and WAS−/− mice on Balb/c background were pooled and enriched using the EasySep Mouse CD8+ T Cell Enrichment Kit from STEMCELL Technologies (British Columbia, Canada). Enrichment was confirmed using fluorescence-activated cell sorting (FACS) by staining the cells with FITC/anti-Thy1.2 and PE/anti-CD8α antibodies (Abs). The memory T cell population was assessed by evaluating the expression of CD44 and CD62L via FACS. T cells in an activation medium with 100 units/mL IL-2 and 1% anti-CD28 Ab were activated by plate-bound anti-CD3 Abs for 4 day at 37° C. The activation medium included RPMI with 10% FBS, 10 mM HEPES (1M), 1% NEAA, 1% sodium pyruvate (100 mM), 50 μM β-mercaptoethanol, 4 mM L-glutamine, and 100 μg/mL Pen/Strep. Cell activation was verified via FACS measurement of CD25. Enriched WT and WAS−/− T cells in DMEM with 1% BSA and 0.1% Pen/Strep were induced to migrate through polycarbonate Transwell inserts (Costar, Cambridge, Mass.) with 5-μm pores in a 24-well plate toward a CCL19 chemokine source (R&D Systems, Minneapolis, Minn.). Inserts contained 5×10^5 cells in 100 μL of medium, and wells contained 1 mL of medium with either no CCL19 or 100 ng/mL of CCL19. Cells were allowed to migrate for ˜7 hours at 37° C., and those that crossed the membrane were collected and used for MPA studies.

[3] = system: naïve WAS−/− T cells; assay: In vitro Transwell cell migration toward CCL19; assay type: cell-based, mouse
Procedure: as §1

[4] = system: WT T cells; assay: Micropipette aspiration of chemokine-stimulated T cells; assay type: cell-based, mouse
Procedure: (§2) Micropipettes made using a micropipette puller were trimmed to 2.5-3 or 4.5-5 μm inner diameter for testing naïve and activated T cells. MPA glass chambers consisted of a 24 mm×60 mm microscope coverslip bottom, a U-shaped parafilm spacer, and a 22 mm×22 mm microscope coverslip top. The assembly was baked for two hours at 80° C. to ensure good adhesion between the components.
(§3) Enriched WT and WAS−/− T cells in DMEM with 1% BSA and 0.1% Pen/Strep were induced to migrate through polycarbonate Transwell inserts (Costar, Cambridge, Mass.) with 5-μm pores in a 24-well plate toward a CCL19 chemokine source (R&D Systems, Minneapolis, Minn.). Inserts contained 5×10^5 cells in 100 μL of medium, and wells contained 1 mL of medium with either no CCL19 or 100 ng/mL of CCL19. Cells were allowed to migrate for ˜7 hours at 37° C., and those that crossed the membrane were collected and used for MPA studies.
(§4) 3×10^5 cells in 100 μL RPMI with 10% FBS and 1% HEPES was stained with 10 μL trypan blue. The mixture was added to 600 μL of either the RPMI medium or the T cell activation medium with IL-2 for naïve and activated T cell testing. Migratory T cells were tested in the medium used for migration. The MPA device was based on the design of Hochmuth et al (18). The aspiration rate and volume were 36 mL/hr and 2 mL, corresponding to a total pressure of ˜400 Pa. The cell movement in the micropipette was recorded with a CCD camera. Aspirations were performed at approximately room temperature.
(§5) MPA data were fitting using the half-space model (77) described by the expressions:
(§6) where E is the cell modulus, L is the length from the micropipette opening to the cell leading edge, Δp is the pressure differential at a particular L, ri and ro are the inner and outer […] of the micropipette, and φ is the wall function that is approximately […]. The ImageJ software was used to manually track the change in L. By plotting Δp against ri/L and finding the best linear fit (minimal total error) a modulus could be derived from the slope of the line. […]

[5] = system: WAS−/− T cells; assay: as above; assay type: cell-based, mouse; conditions: naïve WAS−/− T cells
Procedure: as §2, §3, §4, §5, §6

For `CC1=C(/C=C/C(C)=C/C=C/C(C)=C/C(=O)O)C(C)(C)CCC1` [all-trans retinoic acid], the “compliance of differentiated cells relative to control (more compliant)” value [1] is given as 45%.

B1: CCL19: chemokine CCL19 (R&D Systems) used as chemoattractant for T cells (protein, UniProt Q99731 22-98, looked up)
C-C motif chemokine 19: GTNDAEDCCLSVTQKPIPGYIVRNFHYLLIKDGCRVPAVVFTTLRGRQLCAPPDQPWVERIIQRLQRTSAKMKRRSS
For B1, the “migrating cells stained CD62L high and CD44 low (naïve phenotype), FACS” value [2] was about 90%, the “cells with naïve phenotype (CD62L and CD44 co-staining), FACS” value ([3]; all three groups (untreated, remained in insert, migrated)) was about 90% and the cells migrated ([3]; seven hours exposure to CCL19, 100 ng/mL, 5-μm pore inserts) was about 6.4%. The “stiffness compared to activated cells” value ([4]; migratory WT cells after CCL19) was “about 1.4 times”, the “change in modulus before and after the chemokine treatment (Student's t test)” value ([4]; naïve WT T cells) was “significantly different” and the “change in modulus before and after the chemokine treatment (Student's t test)” value [5] was “did not pass the 95% significance level; also recorded: insignificant decrease”.
